The supplement of paper PMC10567573

B1: ZBED3 (parent)
chain: GPGFHAGTSALWRHLRSAHRRELE
B2: TRAF3IP2 (parent)
chain: KEHVPTWLQNTHVYSWPKNKKNIL

Variants of: B1
Assay: protein stability index of a GFP-peptide fusion (GPS, HEK-293T) (PSI 1-6); higher = more stable
Conditions: c terminus: a fixed tail appended
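Note: lentivirally expressed fusions sorted by FACS into six bins by GFP to DsRed ratio, PSI derived from sequencing read proportions per bin multiplied by bin number.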

Protein stability index: each site, then its substitutions
E24: I 2.65 | S 1.97 | F 2.32 | P 1.93 | G 1.76 | H 1.85 | K 3.2 | N 1.91 | M 2.78 | V 2.11 | A 2.02 | W 1.84 | L 2 | R 2.96 | Q 2.51 | C 1.65 | D 1.94 | T 2.35 | Y 2.42
E22: T 2.23 | I 1.95 | K 1.97 | H 3.09 | F 2.43 | Q 1.72 | N 1.95 | P 1.77 | M 2.38 | W 2.25 | Y 1.47 | C 2.08 | A 2.76 | V 2.44 | R 2.38 | S 2.17 | L 2.4 | D 2.06
R21: P 1.95 | W 2.07 | N 1.77 | A 1.7 | L 1.77 | T 2.49 | D 2.35 | E 2.33 | C 4.08 | G 1.75 | S 1.84 | V 1.53 | M 1.9 | Y 2.14 | Q 2.52 | K 2.51 | F 1.02 | H 1.73 | I 1.97
L23: I 2.19 | K 2.79 | P 1.98 | T 1.97 | C 2.14 | A 2.83 | V 1.92 | Q 2.13 | E 2.07 | R 2.91 | Y 2.42 | G 2.32 | N 2.03 | H 2.37 | F 2.11 | S 2.36 | W 1.88 | M 2.32 | D 1.95
S17: Q 2.03 | T 2.65 | G 2.6 | Y 2.38 | I 2.17 | H 1.85 | W 3.17 | L 3.44 | E 2.78 | P 1.9 | M 2.25 | R 2.42 | N 1.69 | K 2.51 | V 1.94 | D 2.9 | F 2.25
R20: Y 1.62 | A 1.82 | Q 2.31 | G 2.23 | T 1.92 | S 1.86 | N 1.4 | D 2.01 | F 2.36 | V 2.06 | L 1.59 | W 2.83 | P 2.54 | M 2.17 | C 2.27 | H 1.37 | E 2.08 | K 2.54 | I 1.74
H19: Q 2.2 | L 2.53 | Y 2.5 | M 1.73 | K 2.54 | P 2.11 | A 2.74 | V 3.03 | R 2.68 | T 2.14 | I 2.3 | W 2.14 | S 2.29 | D 2.03 | N 1.58 | E 2.21 | F 2.84 | G 2.14 | C 2.7
A18: F 2.07 | C 1.79 | P 3.65 | T 2.47 | E 3.1 | I 2.12 | Q 2.61 | V 1.99 | G 1.89 | Y 1.85 | L 2.79 | K 2.81 | N 2.45 | H 2.04 | W 1.63 | M 1.77 | S 1.88 | D 2.02 | R 3.02

Variants of: B2
Assay: as above
Conditions: c terminus: a fixed tail appended

Protein stability index: each site, then its substitutions
T6: R 2.23 | S 2.88 | L 2.58 | P 3.07 | G 2.81 | V 2.17 | D 2.71 | Y 2.32 | C 1.81 | E 2.59 | N 3.38 | W 1.53 | K 2.73 | M 2.22 | A 2.49 | H 2.29 | Q 2.51 | I 2.21
